The source of these data is PMC5507929, “Structural and Biochemical Characterization of Apicomplexan Inorganic Pyrophosphatases” (Scientific Reports, 2017).

What is called stoichiometry N is the number of molecules, sites or subunits per partner or assembly. A word on the Km: it is the concentration of substrate that gives half-maximal velocity. As usually defined, the kcat is the number of substrate molecules converted per active site and unit of time at saturation. By kcat/Km is commonly meant the second-order rate constant that governs catalysis at low substrate concentration.

Data set [1] concerns the target Plasmodium falciparum soluble inorganic pyrophosphatase (PfPPase), full length (Plasmodium falciparum). Nature of the data set: native gel or EMSA; blue native PAGE of purified recombinant PfPPase from E. coli. In general terms: A gel shift assay detects complexes by their altered migration in electrophoresis.
Data set [2] has the same target. The data set is described as follows: SEC; gel permeation chromatography on S-200 16/60; 30 mM HEPES-Na pH 7.2, 100 mM NaCl, 1 mM DTT; absorbance at 280 nm, compared with Mwt markers. Background: In gel filtration, larger molecules generally elute earlier.
In another data set the target is T1, PfPPase (Plasmodium falciparum, UniProt O77392).
T1 construct: gene MAL3P6.3
T1 sequence (O77392 1-380): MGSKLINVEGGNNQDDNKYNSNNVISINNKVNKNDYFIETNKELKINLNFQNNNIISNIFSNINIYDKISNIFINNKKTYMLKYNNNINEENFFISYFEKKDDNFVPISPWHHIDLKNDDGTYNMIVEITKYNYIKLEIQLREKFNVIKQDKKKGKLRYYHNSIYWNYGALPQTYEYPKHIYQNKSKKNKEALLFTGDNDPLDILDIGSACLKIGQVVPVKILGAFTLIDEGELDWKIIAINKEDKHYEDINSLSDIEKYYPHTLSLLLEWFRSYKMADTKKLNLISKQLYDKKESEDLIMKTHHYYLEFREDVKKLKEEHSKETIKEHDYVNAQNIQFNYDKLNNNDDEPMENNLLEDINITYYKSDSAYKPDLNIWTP
To be noted: active site (P1 phosphate position), chains B and C; Se-Met protein crystallised with 1 mM PPi and 3 mM MgCl2.

For data set [3], the target named is Toxoplasma gondii soluble inorganic pyrophosphatase (TgPPase) (Toxoplasma gondii). The data set is described as follows: SEC; TgPPase in solution (Supplementary Figure 1b); the sentence names no method; gel filtration analysis is named in p-0022.
Substrate in data set [4]: O=P(O)(O)OP(=O)(O)O
Nature of the data set: malachite green phosphate release assay. To be noted: 3 mM Mg2+, pH 7.2, 37 °C, 100 mM NaCl, 1.4 nM enzyme, pH 7.2. The class given is biochemical, Plasmodium falciparum. From the text:
(§1) malachite green phosphate release assay on PfPPase

Substrate in data set [5]: O=P(O)(O)OP(=O)(O)OP(=O)(O)O
Nature of the data set: malachite green phosphate release assay. It is filed as biochemical, Plasmodium falciparum. To be noted: 1 mM Zn2+, pH 7.0, 37 °C, 100 mM NaCl, pH 7.0.
Text: as §1

Substrate in data set [6]: Nc1ncnc2c1ncn2[C@@H]1O[C@H](COP(=O)(O)OP(=O)(O)OP(=O)(O)O)[C@@H](O)[C@H]1O
The data set is described as follows: malachite green phosphate release assay. The class given is biochemical, Plasmodium falciparum. As to conditions: 1 mM Zn2+, pH 7.2, 37 °C, 100 mM NaCl, pH 7.2.
Text: as §1

Values joined by “and” are separate entries in the source; they are usually repeats but may differ in a detail not shown here. Equal entries are not always repeated.

For “Plasmodium falciparum soluble inorganic pyrophosphatase (PfPPase), full length (enzyme)”, the stoichiometry N was 2 in data set [1]; 2 and 4 in data set [2].

For the molecule `O=P(O)(O)O` [Pi], the “X-ray crystal structure, 3.2 Å” value at PfPPase is “PfPPase active site showed electron density for only one Pi molecule”.

In data set [3], “Toxoplasma gondii soluble inorganic pyrophosphatase (TgPPase) (enzyme)” registered a stoichiometry N of 2.

B1: PfPPase (Plasmodium falciparum 3D7) (protein)
chain: T1 sequence (O77392 1-380)
notes: full length 1-380, pETM41, MBP-6xHis tag cleaved with TEV, E. coli BL21-CodonPlus; ~45 kDa, dimer; crystal protein Se-Met labelled
For the molecule B1, in data set [4], the Km was found to be 10 ± 1.8 µM, the kcat came out at 266 ± 11.4 s⁻¹ and the kcat/Km was determined as 2.66e+07 M⁻¹ s⁻¹. In data set [5], the Km is recorded as 1.6 ± 0.3 µM, the kcat came out at 26.3 ± 3 s⁻¹ and the kcat/Km was determined as 1.6e+07 M⁻¹ s⁻¹. Besides, in data set [6], the Km is recorded as 64 ± 4.2 µM, the kcat amounted to 6.3 ± 1.2 s⁻¹ and the kcat/Km was 90000 M⁻¹ s⁻¹.
